Our source for the IgG synthesis by purified B cells stimulated with LPS (control without T cells) values is US20080182247A1.

This assay has as its target CD70 (human) (UniProt P32970). In words: cell-based or functional assay.

Chain of CD70 (human) (P32970 whole entry): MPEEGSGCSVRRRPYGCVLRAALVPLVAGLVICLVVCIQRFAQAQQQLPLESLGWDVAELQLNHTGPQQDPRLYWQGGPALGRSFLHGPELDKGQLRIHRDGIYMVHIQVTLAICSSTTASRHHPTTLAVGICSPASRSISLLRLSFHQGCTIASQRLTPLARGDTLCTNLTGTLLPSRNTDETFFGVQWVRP

On to “anti-CD70 monoclonal antibody (HNE51) (DAKO)”, for which the IgG synthesis by purified B cells stimulated with LPS (control without T cells) worked out at 125 µg/mL.
